The values below come from patent publication US8865222B2, “Beta-casein assemblies for enrichment of food and beverages and methods of preparation thereof” (Technion Research and Development Foundation Ltd., priority 2008, dated 2014).

The data set can be described thus: Isothermal titration calorimetry (ITC) demicellization of beta-casein micellar solution. The format is physicochemical. How it is done: • Cryo-TEM: Specimens were prepared in the controlled environment vitrification system (CEVS) (Bellare et al. Electron Microsc. Technique, 1988, 10; 87-111) at 24° C. and 100% relative humidity to avoid loss of volatiles. First, the solutions were incubated in the CEVS at the desired temperature for 1 h. Then, a 7 μL drop of each solution was placed on a TEM copper grid covered with a perforated carbon film (Pelco International) and blotted with filter paper to form a thin liquid film of the sample (100-200 nm thick). The thinned sample was plunged into liquid ethane at its freezing temperature (−183° C.) to form a vitrified specimen and then transferred to liquid nitrogen ([…]) for storage. The vitrified specimens were examined in a Philips CM120 transmission electron microscope operating at an accelerating voltage of 120 kV. We used an Oxford CT3500 (Oxford Instruments) cryoholder that maintained the specimens below −175° C. during sample transfer and observation. Images were recorded digitally on a cooled Gatan MultiScan 791 CCD camera using DigitalMicrograph 3.1 software (Gatan) in the low-dose imaging mode to minimize beam exposure and electron-beam radiation damage. • ITC: ITC measurements were performed with a VP-ITC calorimeter (MicroCal) at a temperature of 24° C. The reaction cell (V=1.43 mL) was filled with degassed solvent (lactic acid at pH 2.6, or phosphate buffer at pH 7.0). The injector-stirrer syringe (289 μL) was loaded with a beta-casein micellar solution (20 mg/mL). The micellar solution was injected into the reaction cell in 28 steps of 10 μL aliquots each, and the heat flow was measured. During the titration, the stirring speed was 310 rpm. The duration of each injection was 20 s, and the equilibration time between consecutive injections was 3 min. Such an interval was sufficient to equilibrate the reaction cell after every injection. Each experiment was performed at least three times. Calorimetric data analysis was carried out using Origin 5.0 software (MicroCal). • Analytical Ultracentrifugation: Sedimentation equilibrium experiments were performed at 24° C. using a Beckman Optima XL-A (Palo Alto, Calif.) analytical centrifuge at 6000, 10000, and 12000 rpm for the low-pH solutions and at 4000, 6000, and 8000 rpm for the pH 7.0 solutions. Data were collected at 280 nm. The beta-casein solutions were studied at concentrations ranging from 0.2 to 10.0 mg/mL at pH 2.6 and from 0.2 to 2 mg/mL at pH 7.0 and an ionic strength of 0.1. […] The average apparent molecular weight of the micelles at the various protein concentrations was calculated following methods well known in the art (The partial specific volume vj of the solute was taken to be 0.742 cm3/g3, and a solution density F of 1.0044 g/cm3 was measured). At beta-casein concentrations of 2 mg/mL and above under low pH conditions, the plot of the natural logarithm of the measured absorbance versus the square of the radius from the axis of rotation was not linear. To estimate Nagg, the limiting slope toward the outer edge of the sample cell was used to provide dln(c)/dr^2. The molecular weight calculated using this slope was divided by the monomer molecular weight calculated from the beta-casein amino acid sequence (24000).
• Characterization of the beta-casein micelles by ITC: beta-casein micellar solution was titrated into lactic acid buffer (pH 2.6) placed in the ITC cell, and the heat flow was measured as a function of time (FIG. 6A). Three factors contribute to the exothermic enthalpy changes observed at the initial injections: micelle dilution, demicellization, and dilution of individual beta-casein molecules. The enthalpy changes decrease in magnitude as more protein is added and the concentration in the ITC cell increases. Eventually, the concentration in the cell exceeds the CMC and only micelle dilution contributes to the heat flow. […]
For orientation: ITC needs no label: the signal is the heat of the interaction.

Marks after values point to notes of the source that are not given here.

B1: beta-casein: lyophilized bovine beta-casein (~24 kDa milk protein) self-assembled into nano-sized micelles at low or neutral pH (protein, UniProt P02666 16-224, looked up)
Beta-casein: RELEELNVPGEIVESLSSSEESITRINKKIEKFQSEEQQQTEDELQDKIHPFAQTQSLVYPFPGPIPNSLPQNIPPLTQTPVVVPPFLQPEVMGVSKVKEAMAPKHKEMPFPKYPVEPFTESQSLTLTDVENLHLPLPLLQSWMHQPHQPLPPTVMFPPQSVLSLSQSKVLPVPQKAVPYPQRDMPIQAFLLYQEPVLGPVRGPFPIIV
B1: the “heat of demicellization, ΔHdemic” value is, setting by setting: (pH 2.6, 24 °C) about -4.28 kcal/mol; (pH 7.0 and IS of 0.1) -9.687 kcal/mol. The CMC was 1.89 mg/mL (pH 2.6, 24 °C, ITC); 0.19* wt % (pH 2.6, 25 °C row of table, found by ITC (footnote *)); 0.079 mM (pH 2.6, ITC). In addition, the “relative micellization cooperativity (MR)” value (pH 2.6, IS 0.002, 24 °C) turned out to be 0.14 mM.
